Experimental data reported in IntAct's records for PubMed 17350572.

B1: Programmed cell death 6-interacting protein (Homo sapiens), Q8WUM4 (parent)
chain: MATFISVQLKKTSEVDLAKPLVKFIQQTYPSGGEEQAQYCRAAEELSKLRRAAVGRPLDKHEGALETLLRYYDQICSIEPKFPFSENQICLTFTWKDAFDKGSLFGGSVKLALASLGYEKSCVLFNCAALASQIAAEQNLDNDEGLKIAAKHYQFASGAFLHIKETVLSALSREPTVDISPDTVGTLSLIMLAQAQEVFFLKATRDKMKDAIIAKLANQAADYFGDAFKQCQYKDTLPKEVFPVLAAKHCIMQANAEYHQSILAKQQKKFGEEIARLQHAAELIKTVASRYDEYVNVKDFSDKINRALAAAKKDNDFIYHDRVPDLKDLDPIGKATLVKSTPVNVPISQKFTDLFEKMVPVSVQQSLAAYNQRKADLVNRSIAQMREATTLANGVLASLNLPAAIEDVSGDTVPQSILTKSRSVIEQGGIQTVDQLIKELPELLQRNREILDESLRLLDEEEATDNDLRAKFKERWQRTPSNELYKPLRAEGTNFRTVLDKAVQADGQVKECYQSHRDTIVLLCKPEPELNAAIPSANPAKTMQGSEVVNVLKSLLSNLDEVKKEREGLENDLKSVNFDMTSKFLTALAQDGVINEEALSVTELDRVYGGLTTKVQESLKKQEGLLKNIQVSHQEFSKMKQSNNEANLREEVLKNLATAYDNFVELVANLKEGTKFYNELTEILVRFQNKCSDIVFARKTERDELLKDLQQSIAREPSAPSIPTPAYQSSPAGGHAPTPPTPAPRTMPPTKPQPPARPPPPVLPANRAPSATAPSPVGAGTAAPAPSQTPGSAPPPQAQGPPYPTYPGYPGYCQMPMPMGYNPYAYGQYNMPYPPVYHQSPGQAPYPGPQQPSYPFPQPPQQSYYPQQ
partner: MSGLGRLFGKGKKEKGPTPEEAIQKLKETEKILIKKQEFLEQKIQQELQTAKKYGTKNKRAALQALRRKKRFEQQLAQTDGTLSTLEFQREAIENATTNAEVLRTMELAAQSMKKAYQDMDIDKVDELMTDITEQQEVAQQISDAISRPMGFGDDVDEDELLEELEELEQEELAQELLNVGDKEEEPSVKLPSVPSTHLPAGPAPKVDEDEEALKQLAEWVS
B2: Programmed cell death 6-interacting protein (Homo sapiens), Q8WUM4 (parent)
chain: B1 chain
partner: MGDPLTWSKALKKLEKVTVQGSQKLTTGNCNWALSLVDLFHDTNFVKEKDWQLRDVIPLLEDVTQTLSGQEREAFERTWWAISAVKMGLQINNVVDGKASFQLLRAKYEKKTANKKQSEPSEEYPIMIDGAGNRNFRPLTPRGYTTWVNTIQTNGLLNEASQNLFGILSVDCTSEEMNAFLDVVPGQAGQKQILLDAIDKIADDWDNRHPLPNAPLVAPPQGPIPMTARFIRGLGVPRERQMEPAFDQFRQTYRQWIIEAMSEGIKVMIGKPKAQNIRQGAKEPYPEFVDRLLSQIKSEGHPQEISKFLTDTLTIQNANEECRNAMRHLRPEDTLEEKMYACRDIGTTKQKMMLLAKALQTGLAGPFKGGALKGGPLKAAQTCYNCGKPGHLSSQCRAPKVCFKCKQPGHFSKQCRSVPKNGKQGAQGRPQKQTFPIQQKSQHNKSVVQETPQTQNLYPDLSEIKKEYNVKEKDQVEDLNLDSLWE
B3: Programmed cell death 6-interacting protein (Homo sapiens), Q8WUM4 (parent)
chain: B1 chain
B4: Gag polyprotein (Equine infectious anemia virus (isolate 1369) (EIAV)), P69730 (parent)
chain: B2 partner

Variants of: B1
Settings: with chm4a_human CHMP4A

Variant | effect of a mutation on the interaction
I212D | disrupting interaction

Variants of: B2
Settings: with gag_eiav9 gag

Variant | effect of a mutation on the interaction
I683D | decreasing interaction
F676D | disrupting interaction
V498D | decreasing interaction

Variants of: B3
Settings: with gag_hv1b1 gag

Variant | effect of a mutation on the interaction
F676D | disrupting interaction
I683D | decreasing interaction
V498D | disrupting interaction

Variants of: B3
Settings: with ts101_human TSG101, Q99816
Sequence of ts101_human TSG101, Q99816 (Q99816 whole entry): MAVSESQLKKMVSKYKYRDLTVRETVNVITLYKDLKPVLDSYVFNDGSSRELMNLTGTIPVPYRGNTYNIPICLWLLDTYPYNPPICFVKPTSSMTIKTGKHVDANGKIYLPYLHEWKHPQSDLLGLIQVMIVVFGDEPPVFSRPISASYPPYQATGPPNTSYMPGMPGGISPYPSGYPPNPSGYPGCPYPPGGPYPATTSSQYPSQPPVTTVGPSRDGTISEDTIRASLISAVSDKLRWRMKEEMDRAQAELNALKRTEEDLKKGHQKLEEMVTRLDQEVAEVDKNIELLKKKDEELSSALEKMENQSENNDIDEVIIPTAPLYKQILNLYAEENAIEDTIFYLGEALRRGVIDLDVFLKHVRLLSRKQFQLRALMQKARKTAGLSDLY

Variant | effect of a mutation on the interaction
P720L | disrupting interaction

Variants of: B3
Settings: with sh3g2_human SH3GL2, Q99962
Sequence of sh3g2_human SH3GL2, Q99962 (Q99962 whole entry): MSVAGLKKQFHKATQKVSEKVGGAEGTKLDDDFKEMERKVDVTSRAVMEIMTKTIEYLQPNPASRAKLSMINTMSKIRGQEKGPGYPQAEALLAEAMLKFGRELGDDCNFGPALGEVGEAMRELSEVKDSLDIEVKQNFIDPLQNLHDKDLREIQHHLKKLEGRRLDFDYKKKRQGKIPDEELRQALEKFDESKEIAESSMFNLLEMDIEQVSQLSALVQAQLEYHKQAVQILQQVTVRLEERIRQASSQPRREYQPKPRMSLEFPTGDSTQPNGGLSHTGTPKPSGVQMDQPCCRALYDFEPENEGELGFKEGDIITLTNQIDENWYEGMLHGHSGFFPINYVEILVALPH

Variant | effect of a mutation on the interaction
R757A;P758A | decreasing interaction

Variants of: B4
Settings: with pdc6i_human PDCD6IP

Variant | effect of a mutation on the interaction
MGDPLTWSKALKKLEKVTVQGSQKLTTGNCNWALSLVDLFHDTNFVKEKDWQLRDVIPLLEDVTQTLSGQEREAFERTWWAISAVKMGLQINNVVDGKASFQLLRAKYEKKTANKKQSEPSEEYPIMIDGAGNRNFRPLTPRGYTTWVNTIQTNGLLNEASQNLFGILSVDCTSEEMNAFLDVVPGQAGQKQILLDAIDKIADDWDNRHPLPNAPLVAPPQGPIPMTARFIRGLGVPRERQMEPAFDQFRQTYRQWIIEAMSEGIKVMIGKPKAQNIRQGAKEPYPEFVDRLLSQIKSEGHPQEISKFLTDTLTIQNANEECRNAMRHLRPEDTLEEKMYACRDIGTTKQKMMLLAKALQTGLAGPFKGGALKGGPLKAAQTCYNCGKPGHLSSQCRAPKVCFKCKQPGHFSKQCRSVPKNGKQGAQGRPQKQTFPIQQKSQHNKSVVQETPQTQNLSRDLSEIKKEYNVKEKDQVEDLNLDSLWE [Y458S;P459R] | decreasing interaction
